Source: patent US20240043883A1 (Board of Trustees of Michigan State University, priority 2021, published 2024)
Residue numbers refer to the chain shown, from its start. Numbers in names are those of the source.

Assays:
[1] = biological target: engineered phosphite dehydrogenase PTDH (12x Opt PTDH) from Pseudomonas stutzeri, SEQ ID NO: 73 (Stutzerimonas stutzeri, UniProt O69054, A319E/A325V/C336D/D13E/E130K/E175A/E332N/I150F/I313L/L276Q/M26I/Q132R/Q137R/Q215L/R275Q/V315A/V71I); assay: Michaelis-Menten kinetics of PTDH with sodium phosphite, reduction of NADP^+ at 340 nm; type: biochemical; details: sodium phosphite 10-1000 μM, NADP^+ 0.3 mM; 100 mM sodium phosphate pH 8.0, 25 °C
Sequence of engineered phosphite dehydrogenase PTDH (12x Opt PTDH) from Pseudomonas stutzeri, SEQ ID NO: 73 (O69054 other isoform, or with tags, fused parts or gaps with the stated changes): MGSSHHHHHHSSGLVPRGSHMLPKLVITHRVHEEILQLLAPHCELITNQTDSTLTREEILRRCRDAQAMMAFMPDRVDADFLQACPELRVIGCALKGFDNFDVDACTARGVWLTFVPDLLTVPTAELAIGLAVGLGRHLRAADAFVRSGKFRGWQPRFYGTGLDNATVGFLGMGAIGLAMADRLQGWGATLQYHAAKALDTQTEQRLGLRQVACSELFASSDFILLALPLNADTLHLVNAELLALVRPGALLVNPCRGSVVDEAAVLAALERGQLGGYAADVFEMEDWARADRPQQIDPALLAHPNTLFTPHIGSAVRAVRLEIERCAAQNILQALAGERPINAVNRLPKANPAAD
Protocol: All assays were carried out in triplicate at 25° C. in 100 mM sodium phosphate pH 8.0 in a final volume of 200 μL, unless otherwise specified. All stock solutions were prepared in 100 mM sodium phosphate pH 8.0, unless otherwise specified. A sodium phosphite stock solution was prepared by dissolving an appropriate amount of the solid in a volumetric flask with water.
The assay contained PTDH (0.05 mg mL^−1, 10 μL of a 1 mg mL^−1 stock) and NADP^+ (0.3 mM, 10 μL of a 5 mg mL^−1 stock). The assays were initiated with the addition of sodium phosphite in varying concentrations (10-1000 μM). See. FIG. 23.

[2] = biological target: T1, Corynebacterium glutamicum Cg10062 variant E114N, SEQ ID NO: 62 (Corynebacterium glutamicum, UniProt Q8NU77, E115N); assay: Michaelis-Menten kinetics of ACA hydration, coupled enzyme assay (MSAD/ADH, NADH oxidation at 340 nm)
T1 sequence (Q8NU77 with tags, fused parts or gaps E115N): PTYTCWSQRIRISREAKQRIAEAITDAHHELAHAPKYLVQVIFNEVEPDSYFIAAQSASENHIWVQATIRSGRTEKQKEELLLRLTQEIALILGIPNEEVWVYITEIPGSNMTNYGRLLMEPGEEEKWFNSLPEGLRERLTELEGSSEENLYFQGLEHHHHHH
Protocol: The amount of enzyme used in each assay was varied in order to observe measurable activity. […] The ratios of MSA and acetaldehyde formed by each enzyme was determined by the coupled enzyme assay (FIG. 13), using the differences in rates in the presence and absence of MSAD (Table 10). […] All other components used for steady-state kinetics were identical to those used in the initial screening assays.

[3] = substrate: O=CCC(=O)O; assay: purified protein, by the assay type; type: biochemical, Pseudomonas putida KT2440; details: other: MSA generated in situ from ACA (50-10,000 μM), NADH 0.1 mg/mL, 100 mM potassium phosphate pH 8.0, 25 °C
Protocol: MmsB was characterized using the coupled enzyme assay show in FIG. 28. All assays were carried out in triplicate at 25° C. in 100 mM potassium phosphate pH 8.0, at a final volume of 1 mL. All stock solutions used for the assays were prepared in 100 mM potassium phosphate pH 8.0. […] The assay contained Cg10062 (E114N) (0.8 U), MmsB (0.001 mg mL−1, 10 μL of a 0.1 mg mL−1 stock) and NADH (0.1 mg/mL, 20 μL of a 5 mg mL−1 stock). […] All other components and methods used for steady-state kinetics were identical to those described in Example 5.

[4] = substrate: C#CC(=O)O; assay: purified protein, by the assay type; details: other: ACA, 100 mM sodium phosphate pH 8.0, 25 °C
[5] = substrate: C#CC(=O)O; assay: purified protein, by the assay type; type: biochemical, Corynebacterium glutamicum; details: other: ACA, 100 mM sodium phosphate pH 8.0, 25 °C
Protocol: (§1) Steady-state kinetics were carried out using a Molecular Devices SpectraMax iD3 multi-mode microplate reader and Shimadzu UV2600 spectrophotometer. All assays were carried out in triplicate at 25° C. in 100 mM sodium phosphate pH 8.0 with a final volume of 200 μL, unless otherwise specified. The reduction of acetaldehyde by NADH-dependent alcohol dehydrogenase (ADH) was monitored by following the oxidation of NADH at 340 nm (ε=6220 M^−1 cm^−1).
(§2) All stock solutions, except ADH, required for the kinetics assays used for determining hydratase and hydratase/decarboxylase activities were prepared in 100 mM sodium phosphate pH 8.0. […] Stock solutions of ADH were prepared using deionized water, as recommended by the manufacturer. […] The final pH of each assay was 8.
(§3) The amount of enzyme used in each assay was varied in order to observe measurable activity. Thus, the rates obtained from this experiment were not used directly to compare the enzyme activity. These activities were only used for establishing the product profile of each enzyme. The ratios of MSA and acetaldehyde formed by each enzyme was determined by the coupled enzyme assay (FIG. 13), using the differences in rates in the presence and absence of MSAD (Table 10). […] All other components used for steady-state kinetics were identical to those used in the initial screening assays.

[6] = substrate: O=CCC(=O)O; assay: purified protein, by the assay type; type: biochemical, Escherichia coli; details: other: MSA generated in situ from ACA (10-2000 μM), NADPH 0.3 mM, 100 mM sodium phosphate pH 8.0, 25 °C
Protocol: YdfG was characterized using the coupled enzyme assay show in FIG. 19. All assays were carried out in triplicate at 25° C. in 100 mM sodium phosphate pH 8.0, in a final volume of 200 μL, unless otherwise specified. All stock solutions prepared for the assays were prepared in 100 mM sodium phosphate pH 8.0. […] The assay contained a large excess of Cg10062 (E114N) (2 U), YdfG (0.005 mg mL^−1, 10 μL of a 0.1 mg mL^−1 stock) and NADPH (0.3 mM, 10 μL of a 5 mg mL^−1 stock).

[7] = cited from earlier work; for activity relative to the Cg10062 / product of ACA hydration: previously described variants, in words
[8] = Coupled enzyme assay (ADH, with and without MSAD): hydratase and hydratase/decarboxylase activity and product profile of Cg10062 and variants; type: biochemical; details: for Rate in the absence of MSAD / Rate in the presence of MSAD: ACA 0.5 mM, pH 8, enzyme final concentration differs per variant (0.025-1.50 mg mL^−1), rates not directly comparable; for Product Ratio (%) acetaldehyde / Product Ratio (%) malonate semialdehyde: from Cg10062 activity in the presence and absence of MSAD; for Product Ratio (%) acetaldehyde: * from non-enzymatic decarboxylation of malonate semialdehyde; for Product Ratio (%) malonate semialdehyde: ACA substrate, pH 8.0, 25° C.
Protocol: as §1, §2, §3

For O=[PH]([O-])[O-].[Na+].[Na+] [sodium phosphite], the Km [1] was 778 ± 44 µM and the kcat [1] was 3.45 ± 0.06 s⁻¹.

For C#CC(=O)O [ACA, acetylenecarboxylic acid], the “kcat fold higher than Cg10062 (E114D)” value ([2]; ACA hydration, relative to E114D) was 1.5 fold, the “kcat fold higher than Cg10062 (E114Q)” value ([2]; ACA hydration, relative to E114Q) was 3 fold and the “overall catalytic efficiency relative to wild-type” value ([2]; ACA hydration, relative to wild-type Cg10062) was “comparable to that of the wild-type enzyme”. For the same molecule, the kcat ([2]; ACA, 100 mM sodium phosphate pH 8.0, 25 °C) was 1.04 ± 0.07 s⁻¹.

B1: P. putida KT2440 3-hydroxyisobutyrate dehydrogenase MmsB, SEQ ID NO: 76 (Pseudomonas putida KT2440) (protein)
chain: MRIAFIGLGNMGAPMARNLIKAGHQLNLFDLNKAVLAELAELGGQISPSPKDAAANSELVITMLPAAAHVRSVYLNEDGVLAGIRPGTPTVDCSTIDPQTARDVSKAAAAKGVDMGDAPVSGGTGGAAAGTLTFMVGASTELFASLKPVLEQMGRNIVHCGEVGTGQIAKICNNLLLGISMIGVSEAMALGNALGIDTKVLAGIINSSTGRCWSSDTYNPWPGIIETAPASRGYTGGFGAELMLKDLGLATEAARQAHQPVILGAVAQQLYQAMSLRGEGGKDFSAIVEGYRKKDENLYFQGLEHHHHHH
With B1 the Km [3] was 2220 ± 192 µM, the kcat [3] was 101 ± 5 s⁻¹ and the kcat/Km [3] was 45500 ± 5900 M⁻¹ s⁻¹.

B2: Corynebacterium glutamicum Cg10062 variant E114N, SEQ ID NO: 62 (Corynebacterium glutamicum ATCC 13032; E115N) (protein)
chain: T1 sequence (Q8NU77 with tags, fused parts or gaps E115N)
B2 gave a Km [4] of 45 ± 1 µM.

B3: Corynebacterium glutamicum Cg10062 variant E114D-Y103F, SEQ ID NO: 71 (Corynebacterium glutamicum ATCC 13032; E115D/Y104F) (protein)
chain: T1 sequence (Q8NU77 with tags, fused parts or gaps E115N) with Y103F, N114D
In the case of B3, the Km [5] is reported as 72 ± 7 µM, the kcat [5] is reported as 0.34 ± 0.01 s⁻¹ and the kcat/Km [5] is reported as 4700 ± 500 M⁻¹ s⁻¹.

B4: Corynebacterium glutamicum Cg10062, wild-type, SEQ ID NO: 59 (Corynebacterium glutamicum ATCC 13032) (protein)
chain: T1 sequence (Q8NU77 with tags, fused parts or gaps E115N) with N114E
B4 showed a Km [4] of 66 ± 4 µM, a kcat [4] of 8.21 s⁻¹ and a kcat/Km [4] of 124000 M⁻¹ s⁻¹.

B5: E. coli 3-hydroxy acid dehydrogenase YdfG, SEQ ID NO: 75 (Escherichia coli K-12) (protein)
chain: MIVLVTGATAGFGECITRRFIQQGHKVIATGRRQERLQELKDELGDNLYIAQLDVRNRAAIEEMLASLPAEWCNIDILVNNAGLALGMEPAHKASVEDWETMIDTNNKGLVYMTRAVLPGMVERNHGHIINIGSTAGSWPYAGGNVYGATKAFVRQFSLNLRTDLHGTAVRVTDIEPGLVGGTEFSNVRFKGDDGKAEKTYQNTVALTPEDVSEAVWWVSTLPAHVNINTLEMMPVTQSYAGLNVHRQENLYFQGLEHHHHHH
In the case of B5, the Km [6] is reported as 137 ± 18 µM, the kcat [6] is reported as 6.62 ± 0.43 s⁻¹ and the kcat/Km [6] is reported as 48300 ± 7100 M⁻¹ s⁻¹.

B6: Cg10062: Tautomerase superfamily enzyme from Corynebacterium glutamicum, SEQ ID NO: 21; His6-tagged form SEQ ID NO: 59 (protein)
chain: PTYTCWSQRIRISREAKQRIAEAITDAHHELAHAPKYLVQVIFNEVEPDSYFIAAQSASENHIWVQATIRSGRTEKQKEELLLRLTQEIALILGIPNEEVWVYITEIPGSNMTEYGRLLMEPGEEEKWFNSLPEGLRERLTELEGSSE
modifications: Cg10062 from Corynebacterium glutamicum codon-optimized for Escherichia coli
In the case of B6, the “acetaldehyde in product mixture from ACA” value ([7]; background statement) is listed as 75%, the “malonate semialdehyde in product mixture from ACA” value ([7]; background statement) is listed as 25% and the “Rate in the absence of MSAD” value [8] is listed as 120 µM/min. The “Rate in the presence of MSAD” value [8] was 146 µM/min, the “Product Ratio (%) acetaldehyde” value [8] was 81% and the “Product Ratio (%) malonate semialdehyde” value [8] was 19%.

B7: Cg10062(E114Q): Previously described Cg10062 variant with E114Q mutation, SEQ ID NO: 22 and 60 (protein)
chain: B6 chain with E114Q
modifications: Cg10062(E114Q) from Corynebacterium glutamicum codon-optimized for Escherichia coli
For B7, the “activity relative to the Cg10062” value [7] is listed as “significantly lower activity”, the “product of ACA hydration” value [7] is listed as “MSA exclusively” and the “Rate in the absence of MSAD” value [8] is listed as “no activity”. For the same molecule, the “Rate in the presence of MSAD” value [8] was 102 µM/min, the “Product Ratio (%) acetaldehyde” value [8] was <1* % and the “Product Ratio (%) malonate semialdehyde” value [8] was greater than 99%.

B8: Cg10062(E114D): Previously described Cg10062 variant with E114D mutation, SEQ ID NO: 23 and 61 (protein)
chain: B6 chain with E114D
modifications: Cg10062(E114D) from Corynebacterium glutamicum codon-optimized for Escherichia coli
In the case of B8, the “activity relative to the Cg10062” value [7] is listed as “significantly lower activity”, the “product of ACA hydration” value [7] is listed as “MSA exclusively” and the “Rate in the absence of MSAD” value [8] is listed as “no activity”. For the same molecule, the “Rate in the presence of MSAD” value [8] was 90 µM/min, the “Product Ratio (%) acetaldehyde” value [8] was <1* % and the “Product Ratio (%) malonate semialdehyde” value [8] was greater than 99%.
